Experimental data as given in patent US20160159885A1.

Key:
pseudolysin = pseudolysin (UniProt P14756); experiment: cell-based or functional assay
[1] = target: thermolysin (Bacillus thermoproteolyticus) (UniProt P00800); experiment: cell-based or functional assay
Sequence of UniProt P00800 (P00800 233-548 limits assumed): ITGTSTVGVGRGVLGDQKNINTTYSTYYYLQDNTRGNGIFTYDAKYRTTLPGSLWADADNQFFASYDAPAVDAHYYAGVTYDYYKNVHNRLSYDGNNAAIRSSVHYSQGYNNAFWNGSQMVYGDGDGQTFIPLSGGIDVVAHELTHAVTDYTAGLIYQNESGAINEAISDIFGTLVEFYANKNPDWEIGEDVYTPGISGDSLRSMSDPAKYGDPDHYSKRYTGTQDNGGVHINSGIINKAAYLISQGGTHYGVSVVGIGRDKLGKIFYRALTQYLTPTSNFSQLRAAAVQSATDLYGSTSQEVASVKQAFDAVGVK

Sequence of UniProt P14756 (P14756 198-498 limits assumed): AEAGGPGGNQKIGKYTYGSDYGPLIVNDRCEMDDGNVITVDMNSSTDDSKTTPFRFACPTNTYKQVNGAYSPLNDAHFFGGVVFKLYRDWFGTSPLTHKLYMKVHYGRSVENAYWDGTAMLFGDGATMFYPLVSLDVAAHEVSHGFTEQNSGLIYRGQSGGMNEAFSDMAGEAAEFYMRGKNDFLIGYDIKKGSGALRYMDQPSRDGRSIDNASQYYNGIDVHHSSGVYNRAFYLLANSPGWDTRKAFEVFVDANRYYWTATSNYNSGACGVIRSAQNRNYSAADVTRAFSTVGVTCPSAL

For “wtIMPIα (wild-type insect metalloproteinase inhibitor IMPIα) (from UniProt P82176 20-88)”, the IC50 wt PLN; column Pos35 InA (pseudolysin) was 21.8 nM, the IC50 wt PLN; column Pos35 InF (pseudolysin) was 21.9 nM and the IC50 wt PLN; column Pos35 InL (pseudolysin) was 21.9 nM. It also gave an IC50 wt PLN; column Pos35 InM (pseudolysin) of 21.9 nM, an IC50 wt PLN; column Pos35 InV (pseudolysin) of 22.2 nM and an IC50 wt PLN; column Pos35 InW (pseudolysin) of 22.1 nM. The IC50 wt PLN; column Pos35 InY (pseudolysin) was 21.9 nM, the IC50 wt PLN; column Pos36 InA (pseudolysin) was 22 nM and the IC50 wt PLN; column Pos36 InD (pseudolysin) was 20.9 nM. The IC50 wt PLN; column Pos36 InE (pseudolysin) was 21.6 nM, the IC50 wt PLN; column Pos36 InF (pseudolysin) was 22.3 nM and the IC50 wt PLN; column Pos36 InG (pseudolysin) was 21.6 nM. It also gave an IC50 wt PLN; column Pos36 InH (pseudolysin) of 22 nM, an IC50 wt PLN; column Pos36 InK (pseudolysin) of 22 nM and an IC50 wt PLN; column Pos36 InM (pseudolysin) of 22 nM. The IC50 wt PLN; column Pos36 InQ (pseudolysin) was 21.9 nM, the IC50 wt PLN; column Pos36 InR (pseudolysin) was 22.3 nM and the IC50 wt PLN; column Pos36 InT (pseudolysin) was 21.9 nM. The IC50 wt PLN; column Pos36 InV (pseudolysin) was 22.1 nM, the IC50 wt PLN; column Pos36 InW (pseudolysin) was 22.1 nM and the IC50 wt PLN; column Pos36 InY (pseudolysin) was 22.2 nM. It also gave an IC50 wt PLN; column Pos37 NnA (pseudolysin) of 21.9 nM, an IC50 wt PLN; column Pos37 NnC (pseudolysin) of 20.7 nM and an IC50 wt PLN; column Pos37 NnD (pseudolysin) of 22.6 nM. The IC50 wt PLN; column Pos37 NnE (pseudolysin) was 21.9 nM, the IC50 wt PLN; column Pos37 NnG (pseudolysin) was 21.8 nM and the IC50 wt PLN; column Pos37 NnH (pseudolysin) was 21.2 nM. It also gave an IC50 wt PLN; column Pos37 NnL (pseudolysin) of 20.8 nM, an IC50 wt PLN; column Pos37 NnM (pseudolysin) of 30.8 nM and an IC50 wt PLN; column Pos37 NnP (pseudolysin) of 20.8 nM. It also gave an IC50 wt PLN; column Pos37 NnQ (pseudolysin) of 22.2 nM, an IC50 wt PLN; column Pos37 NnS (pseudolysin) of 21.5 nM and an IC50 wt PLN; column Pos37 NnV (pseudolysin) of 21.2 nM. The IC50 wt PLN; column Pos37 NnW (pseudolysin) was 21.5 nM, the IC50 wt PLN; column Pos37 NnY (pseudolysin) was 21.5 nM and the IC50 wt PLN; column Pos38 InF (pseudolysin) was 21.1 nM. It also gave an IC50 wt PLN; column Pos38 InG (pseudolysin) of 22.8 nM, an IC50 wt PLN; column Pos38 InH (pseudolysin) of 23.1 nM and an IC50 wt PLN; column Pos38 InL (pseudolysin) of 21.7 nM. It also gave an IC50 wt PLN; column Pos38 InM (pseudolysin) of 21.4 nM, an IC50 wt PLN; column Pos38 InQ (pseudolysin) of 22.2 nM and an IC50 wt PLN; column Pos38 InV (pseudolysin) of 21.5 nM. It also gave an IC50 wt PLN; column Pos38 InW (pseudolysin) of 21.1 nM, an IC50 wt PLN; column Pos38 InY (pseudolysin) of 21.1 nM and an IC50 wt PLN; column Pos39 RnA (pseudolysin) of 22.1 nM. It also gave an IC50 wt PLN; column Pos39 RnF (pseudolysin) of 20.5 nM, an IC50 wt PLN; column Pos39 RnG (pseudolysin) of 20.3 nM and an IC50 wt PLN; column Pos39 RnI (pseudolysin) of 21.2 nM. The IC50 wt PLN; column Pos39 RnK (pseudolysin) was 22 nM, the IC50 wt PLN; column Pos39 RnL (pseudolysin) was 20.1 nM and the IC50 wt PLN; column Pos39 RnM (pseudolysin) was 22.1 nM. The IC50 wt PLN; column Pos39 RnQ (pseudolysin) was 22.1 nM, the IC50 wt PLN; column Pos39 RnT (pseudolysin) was 21.9 nM and the IC50 wt PLN; column Pos39 RnV (pseudolysin) was 21.8 nM. It also gave an IC50 wt PLN; column Pos39 RnW (pseudolysin) of 19.9 nM, an IC50 wt PLN; column Pos39 RnY (pseudolysin) of 22.5 nM and an IC50 wt PLN; wt (avg), Pos35 block (pseudolysin) of 22 nM. For the same substance, the IC50 wt PLN; wt (avg), Pos36 block (pseudolysin) was 21.9 nM, the IC50 wt PLN; wt (avg), Pos37 block (pseudolysin) was 22.2 nM and the IC50 wt PLN; wt (avg), Pos38 block (pseudolysin) was 21.8 nM. The IC50 wt PLN; wt (avg), Pos39 block (pseudolysin) was 21.4 nM, the IC50 wt TLN; column Pos35 InA [1] was 12.6 nM and the IC50 wt TLN; column Pos35 InF [1] was 12.6 nM. For the same substance, the IC50 wt TLN; column Pos35 InL [1] was 12.6 nM, the IC50 wt TLN; column Pos35 InM [1] was 12.6 nM and the IC50 wt TLN; column Pos35 InV [1] was 12.6 nM. For the same substance, the IC50 wt TLN; column Pos35 InW [1] was 12.6 nM, the IC50 wt TLN; column Pos35 InY [1] was 12.6 nM and the IC50 wt TLN; column Pos36 InA [1] was 12.4 nM. For the same substance, the IC50 wt TLN; column Pos36 InD [1] was 12.5 nM, the IC50 wt TLN; column Pos36 InE [1] was 12.5 nM and the IC50 wt TLN; column Pos36 InF [1] was 12.6 nM. It also gave an IC50 wt TLN; column Pos36 InG [1] of 12.6 nM, an IC50 wt TLN; column Pos36 InH [1] of 12.4 nM and an IC50 wt TLN; column Pos36 InK [1] of 12.5 nM. The IC50 wt TLN; column Pos36 InM [1] was 12.4 nM, the IC50 wt TLN; column Pos36 InQ [1] was 12.6 nM and the IC50 wt TLN; column Pos36 InR [1] was 12.6 nM. For the same substance, the IC50 wt TLN; column Pos36 InT [1] was 12.4 nM, the IC50 wt TLN; column Pos36 InV [1] was 12.6 nM and the IC50 wt TLN; column Pos36 InW [1] was 12.5 nM. It also gave an IC50 wt TLN; column Pos36 InY [1] of 12.6 nM, an IC50 wt TLN; column Pos37 NnA [1] of 12.6 nM and an IC50 wt TLN; column Pos37 NnC [1] of 12.7 nM. For the same substance, the IC50 wt TLN; column Pos37 NnD [1] was 12.1 nM, the IC50 wt TLN; column Pos37 NnE [1] was 12.6 nM and the IC50 wt TLN; column Pos37 NnG [1] was 12.6 nM. The IC50 wt TLN; column Pos37 NnH [1] was 12.8 nM, the IC50 wt TLN; column Pos37 NnL [1] was 11.1 nM and the IC50 wt TLN; column Pos37 NnM [1] was 11.7 nM. The IC50 wt TLN; column Pos37 NnP [1] was 12 nM, the IC50 wt TLN; column Pos37 NnQ [1] was 12.6 nM and the IC50 wt TLN; column Pos37 NnS [1] was 12.5 nM. It also gave an IC50 wt TLN; column Pos37 NnV [1] of 12.7 nM, an IC50 wt TLN; column Pos37 NnW [1] of 12.7 nM and an IC50 wt TLN; column Pos37 NnY [1] of 12.5 nM. For the same substance, the IC50 wt TLN; column Pos38 InF [1] was 12.6 nM, the IC50 wt TLN; column Pos38 InG [1] was 12.5 nM and the IC50 wt TLN; column Pos38 InH [1] was 12.5 nM. It also gave an IC50 wt TLN; column Pos38 InL [1] of 12.6 nM, an IC50 wt TLN; column Pos38 InM [1] of 12.5 nM and an IC50 wt TLN; column Pos38 InQ [1] of 12.6 nM. It also gave an IC50 wt TLN; column Pos38 InV [1] of 12.6 nM, an IC50 wt TLN; column Pos38 InW [1] of 12.4 nM and an IC50 wt TLN; column Pos38 InY [1] of 12.6 nM. It also gave an IC50 wt TLN; column Pos39 RnA [1] of 12.5 nM, an IC50 wt TLN; column Pos39 RnF [1] of 12.5 nM and an IC50 wt TLN; column Pos39 RnG [1] of 12.7 nM. It also gave an IC50 wt TLN; column Pos39 RnI [1] of 12.5 nM, an IC50 wt TLN; column Pos39 RnK [1] of 12.5 nM and an IC50 wt TLN; column Pos39 RnL [1] of 12.4 nM. The IC50 wt TLN; column Pos39 RnM [1] was 12.6 nM, the IC50 wt TLN; column Pos39 RnQ [1] was 12.6 nM and the IC50 wt TLN; column Pos39 RnV [1] was 12.5 nM. It also gave an IC50 wt TLN; column Pos39 RnW [1] of 12.4 nM, an IC50 wt TLN; wt (avg), Pos35 block [1] of 12.6 nM and an IC50 wt TLN; wt (avg), Pos36 block [1] of 12.5 nM. It also gave an IC50 wt TLN; wt (avg), Pos37 block [1] of 12.4 nM, an IC50 wt TLN; wt (avg), Pos38 block [1] of 12.5 nM and an IC50 wt TLN; wt (avg), Pos39 block [1] of 12.5 nM.
